Reference: the supplement of paper PMC9112550, “Optimization of the antimicrobial peptide Bac7 by deep mutational scanning” (BMC Biology, 2022)

The sequences below were run on Escherichia coli TOP10 (assay: shrunken log2 fold change of peptide-encoding DNA abundance (4.5 h post-induction vs induction); higher = less antimicrobial activity (less host growth inhibition)). Conditions: time post-induction: 4.5 h; library: site-saturation at positions 5, 18, 19, 20.
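Further: peptides expressed intracellularly from a pBAD plasmid library in pooled LB shake-flask culture, induced with 0.3% L-arabinose, DNA abundance read by NGS, three biological replicates, DESeq2 with apeglm shrinkage.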

| Sequence | shrunken log2 fold change |
| --- | --- |
| RRIRDRPPRLPRPRPRPAVPPRP | -0.00426 |
| RRIRYRPPRLPRPRPRPMHQPRP | -0.0734 |
| RRIRGRPPRLPRPRPRPFPMPRP | 0.533 |
| RRIRYRPPRLPRPRPRPVDCPRP | -0.103 |
| RRIRGRPPRLPRPRPRPYNRPRP | 0.00858 |
| RRIRYRPPRLPRPRPRPGPWPRP | 0.18 |
| RRIRARPPRLPRPRPRPWFAPRP | 0.212 |
| RRIRHRPPRLPRPRPRPIMRPRP | -0.0864 |
| RRIRKRPPRLPRPRPRPFKHPRP | -0.0024 |
| RRIRTRPPRLPRPRPRPGFYPRP | -0.159 |
| RRIRVRPPRLPRPRPRPQIYPRP | -0.251 |
| RRIRTRPPRLPRPRPRPPSFPRP | 0.264 |
| RRIRERPPRLPRPRPRPPMYPRP | -0.458 |
| RRIRFRPPRLPRPRPRPHAFPRP | -0.411 |
| RRIRIRPPRLPRPRPRPVNCPRP | -0.34 |
| RRIRDRPPRLPRPRPRPRDSPRP | -0.153 |
| RRIRGRPPRLPRPRPRPVAFPRP | 0.722 |
| RRIRLRPPRLPRPRPRPHNHPRP | -0.77 |
| RRIRWRPPRLPRPRPRPVCVPRP | 0.193 |
| RRIRLRPPRLPRPRPRPGVAPRP | 0.529 |
| RRIRMRPPRLPRPRPRPGHAPRP | 2.85 |
| RRIRARPPRLPRPRPRPMEMPRP | 0.163 |
| RRIRARPPRLPRPRPRPNMEPRP | -0.0484 |
| RRIRARPPRLPRPRPRPNSMPRP | -0.527 |
| RRIRHRPPRLPRPRPRPHFVPRP | -0.136 |

| Sequence | shrunken log2 fold change |
| --- | --- |
| RRIRSRPPRLPRPRPRPSQFPRP | -0.345 |
| RRIRFRPPRLPRPRPRPLIAPRP | -0.234 |
| RRIRERPPRLPRPRPRPHRLPRP | -0.18 |
| RRIRMRPPRLPRPRPRPNRDPRP | 0.00277 |
| RRIRFRPPRLPRPRPRPGKEPRP | -0.166 |
| RRIRNRPPRLPRPRPRPRIVPRP | -0.191 |
| RRIRYRPPRLPRPRPRPGRKPRP | -0.155 |
| RRIRQRPPRLPRPRPRPHLEPRP | -0.15 |
| RRIRSRPPRLPRPRPRPCRNPRP | -0.273 |
| RRIRRRPPRLPRPRPRPCAHPRP | 0.067 |
| RRIRARPPRLPRPRPRPMMIPRP | 0.313 |
| RRIRGRPPRLPRPRPRPSFLPRP | -0.118 |
| RRIRQRPPRLPRPRPRPKSRPRP | 0.0336 |
| RRIRMRPPRLPRPRPRPFWKPRP | 0.072 |
| RRIRARPPRLPRPRPRPKGSPRP | 0.199 |
| RRIRNRPPRLPRPRPRPFSEPRP | -0.0347 |
| RRIRCRPPRLPRPRPRPAPSPRP | 0.504 |
| RRIRYRPPRLPRPRPRPPPQPRP | 0.776 |
| RRIRMRPPRLPRPRPRPMPNPRP | 0.154 |
| RRIRMRPPRLPRPRPRPDYMPRP | -0.00256 |
| RRIRNRPPRLPRPRPRPRQYPRP | 0.0612 |
| RRIRKRPPRLPRPRPRPSTGPRP | -0.284 |
| RRIRPRPPRLPRPRPRPAHRPRP | 0.384 |
| RRIRERPPRLPRPRPRPMWHPRP | 0.0749 |
| RRIRHRPPRLPRPRPRPCCHPRP | -0.707 |

| Sequence | shrunken log2 fold change |
| --- | --- |
| RRIRTRPPRLPRPRPRPKMRPRP | 0.0419 |
| RRIRPRPPRLPRPRPRPELLPRP | 0.14 |
| RRIRQRPPRLPRPRPRPYPSPRP | -0.161 |
| RRIRVRPPRLPRPRPRPRSRPRP | 0.227 |
| RRIRIRPPRLPRPRPRPFRGPRP | -0.0233 |
| RRIRQRPPRLPRPRPRPTSRPRP | -0.0729 |
| RRIRGRPPRLPRPRPRPDWLPRP | 0.963 |
| RRIRFRPPRLPRPRPRPMSIPRP | -0.354 |
| RRIRNRPPRLPRPRPRPHFVPRP | -0.0954 |
| RRIRNRPPRLPRPRPRPYGVPRP | -0.00804 |
| RRIRKRPPRLPRPRPRPVFYPRP | -0.0751 |
| RRIRQRPPRLPRPRPRPDVAPRP | -0.116 |
| RRIRFRPPRLPRPRPRPAHEPRP | 0.0902 |
| RRIRGRPPRLPRPRPRPMWWPRP | 0.184 |
| RRIRGRPPRLPRPRPRPAAVPRP | 1.51 |
| RRIRDRPPRLPRPRPRPWIAPRP | -0.117 |
| RRIRRRPPRLPRPRPRPQCEPRP | 0.153 |
| RRIRKRPPRLPRPRPRPFFQPRP | 0.346 |
| RRIRTRPPRLPRPRPRPYNDPRP | -0.00735 |
| RRIRGRPPRLPRPRPRPNNQPRP | -0.011 |
| RRIRGRPPRLPRPRPRPCPQPRP | 0.654 |
| RRIRGRPPRLPRPRPRPEVFPRP | 1.38 |
| RRIRERPPRLPRPRPRPPDKPRP | 0.0845 |
| RRIRARPPRLPRPRPRPKCVPRP | 0.463 |
| RRIRDRPPRLPRPRPRPLCAPRP | 0.783 |
